The values that follow are results of earlier work, collected in paper PMC3373023.

In general, pKa refers to the negative logarithm of the acid dissociation constant.

Targets include Glu17 (UniProt position 38, YKTCPEGKNLC); His4 (UniProt position 25, YTLKCHNTQLP); Asp59 (UniProt position 80, VCCSTDKCN--); Asp42 (UniProt position 63, KRGCADNCPKN); Tyr31 (UniProt position 160, SDNKTYGNKCN); Lys29 (UniProt position 158, CGSDNKTYGNK); Glu43 (UniProt position 172, CNAVVESNGTL); His52 (UniProt position 181, TLTLSHFGKC-); Lys13 (UniProt position 142, CSEYPKPACTL); Tyr11 (UniProt position 140, VDCSEYPKPAC); Lys55 (UniProt position 184, LSHFGKC----); Tyr20 (UniProt position 149, ACTLEYRPLCG); Asp27 (UniProt position 156, PLCGSDNKTYG); Asp7 (UniProt position 136, AAVSVDCSEYP); Glu10 (UniProt position 139, SVDCSEYPKPA); Lys34 (UniProt position 163, KTYGNKCNFCN); Glu19 (UniProt position 148, PACTLEYRPLC).

Turning to “Cardiotoxin V (CTX A5, cardiotoxin A5) (Naja naja atra (Naja atra, Taiwan cobra))”, the pKa is recorded as 4.0 with Glu17, 5.6 with His4, under 2.3 with Asp59 and 3.2 with Asp42.
Take “Turkey ovomucoid third domain (OMTKY3) (Meleagris gallopavo)”: the pKa in the data set with Tyr31 is on record as over 12.5; with Lys29 it was 11.1; with Glu43, 4.8; with His52 it was 7.5; with Lys13, 9.9; in the data set with Tyr11, 10.2. The pKa with Lys55 is on record as 11.1; with Tyr20, 11.1; in the data set with Asp27, at most 2.3; in the data set with Asp7 it was at most 2.7; with Glu10 it was 4.2; with Lys34, 10.1. Further, the pKa with Glu19 was 3.2.
